Each block holds one binder with its values, some of them ahead of it.
Biological target: T1, human IL-10 receptor (hIL-10R alpha and beta chains) on HEK-Blue IL-10 reporter cells (human, UniProt Q13651 22-578; Q08334 20-325)
T1 sequence 1: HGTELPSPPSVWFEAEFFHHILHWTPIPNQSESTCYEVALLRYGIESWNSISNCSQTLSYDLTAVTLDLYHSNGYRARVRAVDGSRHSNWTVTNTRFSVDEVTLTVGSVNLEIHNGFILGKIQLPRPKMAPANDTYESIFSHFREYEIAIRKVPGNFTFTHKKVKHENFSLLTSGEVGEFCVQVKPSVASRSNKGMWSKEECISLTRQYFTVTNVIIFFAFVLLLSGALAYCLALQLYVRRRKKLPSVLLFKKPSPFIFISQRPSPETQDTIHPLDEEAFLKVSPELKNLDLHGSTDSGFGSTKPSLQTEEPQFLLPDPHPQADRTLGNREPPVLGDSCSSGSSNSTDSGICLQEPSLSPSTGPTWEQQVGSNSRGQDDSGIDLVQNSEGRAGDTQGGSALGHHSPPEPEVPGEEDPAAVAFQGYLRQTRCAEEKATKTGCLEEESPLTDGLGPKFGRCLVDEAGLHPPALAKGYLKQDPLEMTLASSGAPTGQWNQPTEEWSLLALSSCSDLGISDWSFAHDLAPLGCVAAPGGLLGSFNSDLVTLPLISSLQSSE
T1 sequence 2: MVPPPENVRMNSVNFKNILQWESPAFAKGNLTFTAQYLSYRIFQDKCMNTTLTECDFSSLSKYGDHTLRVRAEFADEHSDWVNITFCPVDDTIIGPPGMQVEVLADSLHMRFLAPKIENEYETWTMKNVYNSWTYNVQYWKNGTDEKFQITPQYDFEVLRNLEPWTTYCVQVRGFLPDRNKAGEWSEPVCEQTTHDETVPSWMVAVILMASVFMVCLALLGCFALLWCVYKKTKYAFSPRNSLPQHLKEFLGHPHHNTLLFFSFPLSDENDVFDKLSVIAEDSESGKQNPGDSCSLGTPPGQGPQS
Assay: cell-based or functional assay

B2: IL10R binding molecule of SEQ ID NO: 258 (bispecific antibody)
chain: QVQLQESGGGSVQAGGSLRLSCAASRYLYSIDYMAWFRQSPGKEREPVAVIYTASGATFYPDSVKGRFTISQDNAKMTVYLQMNSLKSEDTAMYYCAAVRKTDSYLFDAQSFTYWGQGTQVTVSSGGGSQVQLQESGGGSVQAGGSLRLSCAASRYTYNSYCMGWFRQAPGKEREGVATIDSDGMTRYADSVKGRFTISKDNAKNTLYLQMNSLKPEDTAMYYCAADADCTIAAMTTNPLGQGTQVTVSSASHHHHHH
Abs 630 (25 nM): 0.49 Abs 630
Abs 630 (100 nM): 0.38 Abs 630

B7: IL10R binding molecule of SEQ ID NO: 288 (bispecific antibody)
chain: QVQLQESGGGSVQAGGSLRLSCTVSGYTYSSNCMGWFRQAPGKEREGVATIYTGGGNTYYADSVKGRFTISQDNAKNTVYLQMNNLKPEDTAMYYCAAEPLSRVYGGSCPTPTFDYWGQGTQVTVSSGGGSQVQLQESGGGSVEAGGSLRLSCAASGYTHSSYCMGWFRQAPGKEREGVAAIDVDGSTTYADSVKGRFTISKDNAKNTLYLQMNSLKPEDTGMYYCAAEFADCSSNYFLPPGAVRYWGQGTQVTVSSASHHHHHH
Abs 630 (25 nM): 0.5 Abs 630
Abs 630 (100 nM): 0.44 Abs 630

B8: IL10R binding molecule of SEQ ID NO: 291 (bispecific antibody)
chain: QVQLQESGGGSVQAGGSLRLSCGASGYTYSSYCMGWFRQVPGKEREGVAVIDSDGSTSYADSVKGRFTISKDNGKNTLYLQMNSLKPEDTAMYYCAADLGHYRPPCGVLYLGMDYWGKGTQVTVSSGGGSQVQLQESGGGSVQAGGSLRLSCAASGYTYSSGCMGWFRQAPGKEREAVAAINSDGSTSYADSVKGRFTISKDNAKNTLYLQMNSLKPEDTAMYYCAAEPYCSGGYPRWSVAEFGYWGQGTQVTVSSASHHHHHH
Abs 630 (25 nM): 1.73 Abs 630
Abs 630 (100 nM): 0.59 Abs 630

B9: IL10R binding molecule of SEQ ID NO: 287 (bispecific antibody)
chain: QVQLQESGGGSVQAGGSLRLSCTVSGYTYSSNCMGWFRQAPGKEREGVATIYTGGGNTYYADSVKGRFTISQDNAKNTVYLQMNNLKPEDTAMYYCAAEPLSRVYGGSCPTPTFDYWGQGTQVTVSSGGGSQVQLQESGGGSVQAGGSLRLSCTVSRYTASVNYMGWFRQAPGKEREGVATIFTGAGTTYYANSVKGRFTISRDNAKNTAYLQMNSLKPEDTAIYYCAVDFRGGLLYRPAYEYTYRGQGTQVTVSSASHHHHHH
Abs 630 (25 nM): 0.9 Abs 630
Abs 630 (100 nM): 0.51 Abs 630

B10: IL10R binding molecule of SEQ ID NO: 289 (bispecific antibody)
chain: QVQLQESGGGSVQAGGSLRLSCTVSGYTYSSNCMGWFRQAPGKEREGVATIYTGGGNTYYADSVKGRFTISQDNAKNTVYLQMNNLKPEDTAMYYCAAEPLSRVYGGSCPTPTFDYWGQGTQVTVSSGGGSQVQLQESGGGSVQAGGSLRLSCAASGYSYSSYCMGWFRQAPGKEREGVATIDSDGMTRYADSVKGRFTISKDNAKNTLYLQMNSLKPEDTAMYYCAAPLYDCDSGAVGRNPPYWGQGTQVTVSSASHHHHHH
Abs 630 (25 nM): 0.48 Abs 630
Abs 630 (100 nM): 0.39 Abs 630

B15: IL10R binding molecule of SEQ ID NO: 292 (bispecific antibody)
chain: QVQLQESGGGSVQAGGSLRLSCGASGYTYSSYCMGWFRQVPGKEREGVAVIDSDGSTSYADSVKGRFTISKDNGKNTLYLQMNSLKPEDTAMYYCAADLGHYRPPCGVLYLGMDYWGKGTQVTVSSGGGSQVQLQESGGGSVQAGGSLRLSCAASGYTYSSYCMGWFRQAPGKEREGVAHIDSDGSTSYADSVKGRFTISKDNAKNTLYLQMNSLKPEDTAMYYCAADPIPGPGYCDGGPNKYWGQGTQVTVSSASHHHHHH
Abs 630 (25 nM): 0.78 Abs 630
Abs 630 (100 nM): 0.47 Abs 630

B16: IL10R binding molecule of SEQ ID NO: 290 (bispecific antibody)
chain: QVQLQESGGGSVQAGGSLRLSCTVSGYTYSSNCMGWFRQAPGKEREGVATIYTGGGNTYYADSVKGRFTISQDNAKNTVYLQMNNLKPEDTAMYYCAAEPLSRVYGGSCPTPTFDYWGQGTQVTVSSGGGSQVQLQESGGGSVQTGGSLRLSCAASGYTYLRGCMGWFRQAPGKEREGVAVMDVVGDRRSYIDSVKGRFTISRDNAANSVYLQMDNLKPEDTAMYYCTAGPNCVGWRSGLDYWGQGTQVTVSSASHHHHHH
Abs 630 (25 nM): 0.49 Abs 630
Abs 630 (100 nM): 0.37 Abs 630

Second part, the binder after the results:

Abs 630 (25 nM): 0.54 Abs 630
Abs 630 (100 nM): 0.38 Abs 630
B1: IL10R binding molecule of SEQ ID NO: 296 (bispecific antibody)
chain: QVQLQESGGGSVQAGGSLRLSCGASGYTYSSYCMGWFRQVPGKEREGVAVIDSDGSTSYADSVKGRFTISKDNGKNTLYLQMNSLKPEDTAMYYCAADLGHYRPPCGVLYLGMDYWGKGTQVTVSSGGGSQVQLQESGGGSVQAGGSLRLSCAASGYSYSSYCMGWFRQAPGKEREGVATIDSDGMTRYADSVKGRFTISKDNAKNTLYLQMNSLKPEDTAMYYCAAPLYDCDSGAVGRNPPYWGQGTQVTVSSASHHHHHH

Abs 630 (25 nM): 0.84 Abs 630
Abs 630 (100 nM): 0.38 Abs 630
B3: IL10R binding molecule of SEQ ID NO: 298 (bispecific antibody)
chain: QVQLQESGGGSVQAGGSLRLSCAASGYSNCSYDMTWYRQAPGKEREFVSAIHSDGSTRYADSVKGRFFISQDNAKNTVYLQMNSLKPEDTAMYYCKTDPLHCRAHGGSWYSVRANYWGQGTQVTVSSGGGSQVQLQESGGGSVQAGGSLRLSCAASGYTYSSGCMGWFRQAPGKEREAVAAINSDGSTSYADSVKGRFTISKDNAKNTLYLQMNSLKPEDTAMYYCAAEPYCSGGYPRWSVAEFGYWGQGTQVTVSSASHHHHHH

Abs 630 (25 nM): 2.05 Abs 630
Abs 630 (100 nM): 1.91 Abs 630
B4: IL10R binding molecule of SEQ ID NO: 301 (bispecific antibody)
chain: QVQLQESGGGSVQAGGSLRLSCAASGYSNCSYDMTWYRQAPGKEREFVSAIHSDGSTRYADSVKGRFFISQDNAKNTVYLQMNSLKPEDTAMYYCKTDPLHCRAHGGSWYSVRANYWGQGTQVTVSSGGGSQVQLQESGGGSVQAGGSLRLSCTVSRYTASVNYMGWFRQAPGKEREGVATIFTGAGTTYYANSVKGRFTISRDNAKNTAYLQMNSLKPEDTAIYYCAVDFRGGLLYRPAYEYTYRGQGTQVTVSSASHHHHHH

Abs 630 (25 nM): 0.46 Abs 630
Abs 630 (100 nM): 0.36 Abs 630
B5: IL10R binding molecule of SEQ ID NO: 297 (bispecific antibody)
chain: QVQLQESGGGSVQAGGSLRLSCGASGYTYSSYCMGWFRQVPGKEREGVAVIDSDGSTSYADSVKGRFTISKDNGKNTLYLQMNSLKPEDTAMYYCAADLGHYRPPCGVLYLGMDYWGKGTQVTVSSGGGSQVQLQESGGGSVQTGGSLRLSCAASGYTYLRGCMGWFRQAPGKEREGVAVMDVVGDRRSYIDSVKGRFTISRDNAANSVYLQMDNLKPEDTAMYYCTAGPNCVGWRSGLDYWGQGTQVTVSSASHHHHHH

Abs 630 (25 nM): 0.47 Abs 630
Abs 630 (100 nM): 0.37 Abs 630
B6: IL10R binding molecule of SEQ ID NO: 299 (bispecific antibody)
chain: QVQLQESGGGSVQAGGSLRLSCAASGYSNCSYDMTWYRQAPGKEREFVSAIHSDGSTRYADSVKGRFFISQDNAKNTVYLQMNSLKPEDTAMYYCKTDPLHCRAHGGSWYSVRANYWGQGTQVTVSSGGGSQVQLQESGGGSVQAGGSLRLSCAASGYTYSSYCMGWFRQAPGKEREGVAHIDSDGSTSYADSVKGRFTISKDNAKNTLYLQMNSLKPEDTAMYYCAADPIPGPGYCDGGPNKYWGQGTQVTVSSASHHHHHH

Abs 630 (25 nM): 0.49 Abs 630
Abs 630 (100 nM): 0.39 Abs 630
B11: IL10R binding molecule of SEQ ID NO: 294 (bispecific antibody)
chain: QVQLQESGGGSVQAGGSLRLSCGASGYTYSSYCMGWFRQVPGKEREGVAVIDSDGSTSYADSVKGRFTISKDNGKNTLYLQMNSLKPEDTAMYYCAADLGHYRPPCGVLYLGMDYWGKGTQVTVSSGGGSQVQLQESGGGSVQAGGSLRLSCTVSRYTASVNYMGWFRQAPGKEREGVATIFTGAGTTYYANSVKGRFTISRDNAKNTAYLQMNSLKPEDTAIYYCAVDFRGGLLYRPAYEYTYRGQGTQVTVSSASHHHHHH

Abs 630 (25 nM): 0.54 Abs 630
Abs 630 (100 nM): 0.43 Abs 630
B12: IL10R binding molecule of SEQ ID NO: 293 (bispecific antibody)
chain: QVQLQESGGGSVQAGGSLRLSCGASGYTYSSYCMGWFRQVPGKEREGVAVIDSDGSTSYADSVKGRFTISKDNGKNTLYLQMNSLKPEDTAMYYCAADLGHYRPPCGVLYLGMDYWGKGTQVTVSSGGGSQVQLQESGGGSVQAGGSLRLSCAASRYTYNSYCMGWFRQAPGKEREGVATIDSDGMTRYADSVKGRFTISKDNAKNTLYLQMNSLKPEDTAMYYCAADADCTIAAMTTNPLGQGTQVTVSSASHHHHHH

Abs 630 (25 nM): 0.72 Abs 630
Abs 630 (100 nM): 0.46 Abs 630
B13: IL10R binding molecule of SEQ ID NO: 295 (bispecific antibody)
chain: QVQLQESGGGSVQAGGSLRLSCGASGYTYSSYCMGWFRQVPGKEREGVAVIDSDGSTSYADSVKGRFTISKDNGKNTLYLQMNSLKPEDTAMYYCAADLGHYRPPCGVLYLGMDYWGKGTQVTVSSGGGSQVQLQESGGGSVEAGGSLRLSCAASGYTHSSYCMGWFRQAPGKEREGVAAIDVDGSTTYADSVKGRFTISKDNAKNTLYLQMNSLKPEDTGMYYCAAEFADCSSNYFLPPGAVRYWGQGTQVTVSSASHHHHHH

Abs 630 (25 nM): 2.08 Abs 630
Abs 630 (100 nM): 2.11 Abs 630
B14: IL10R binding molecule of SEQ ID NO: 300 (bispecific antibody)
chain: QVQLQESGGGSVQAGGSLRLSCAASGYSNCSYDMTWYRQAPGKEREFVSAIHSDGSTRYADSVKGRFFISQDNAKNTVYLQMNSLKPEDTAMYYCKTDPLHCRAHGGSWYSVRANYWGQGTQVTVSSGGGSQVQLQESGGGSVQAGGSLRLSCAASRYTYNSYCMGWFRQAPGKEREGVATIDSDGMTRYADSVKGRFTISKDNAKNTLYLQMNSLKPEDTAMYYCAADADCTIAAMTTNPLGQGTQVTVSSASHHHHHH
